Experiment [1] addresses T1, His-tagged human PD-1 ECD protein (human, UniProt Q15116 25-167).
T1 construct: also called His-tagged hPD-1 ECD; His-tagged PD-1^ECD; not shown: His tag
Put plainly: SPR Biacore T200, antibody captured by anti-human Fc, His-tagged hPD-1 ECD as analyte. The protocol: Anti-human Fc IgG was immobilized on flow cells 1 and 2: HBS-EP+(10 mM HEPES, 150 mM NaCl, 3 mM EDTA, 0.05% P20, pH 7.4) was used as running buffer, and the immobilization of anti-human Fc IgG was carried out using the immobilization wizard template. Flow cells 1 and 2 of a Series S CM5 sensor chip were activated with freshly-mixed 50 mmol/L NHS and 200 mmol/L EDC. 20 ug/mL of anti-human Fc IgG diluted in 10 mM NaAC (pH 4.5) was injected into the activated flow cells 1 and 2. The remaining active coupling sites were blocked with 1M ethanolamine.
Recombinant His-tagged hPD-1 ECD protein was diluted to 50 nM, followed by four 2-fold serial dilutions with HBS-EP+ buffer. […] KD measurements were carried out with HBS-EP+ as the running buffer. Each antibody was injected over the CM5 sensor flow cell 2 with a flow rate of 10 uL/min to reach response 230 RU. Prepared His-tagged hPD-1 ECD protein was then injected over flow cells 1 and 2, at a flow rate of 30 uL/min for 180 sec. Buffer flow was maintained for 400 seconds for dissociation measurements (30 uL/min). To remove the tested antibody from the surface, 10 mM glycine-HCl pH 1.5 was injected for 20 seconds (30 uL/min). Flow cell 1 was used as reference flow cell. The above steps were repeated for each concentration of serially-diluted His-tagged PD-1^ECD protein. The KD value for each antibody was evaluated using Biacore T200 evaluation software 1.0, and the data was fit with a 1:1 binding model.
A general note: SPR reads the build-up and loss of mass on a sensor chip optically.

In experiment [2] the target is T2, ICOS (human, UniProt Q9Y6W8 21-140, limits assumed).
T2 sequence (looked up): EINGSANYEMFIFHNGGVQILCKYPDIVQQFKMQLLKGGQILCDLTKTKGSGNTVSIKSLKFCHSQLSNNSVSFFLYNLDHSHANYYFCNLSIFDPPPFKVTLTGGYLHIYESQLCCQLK
Put plainly: ELISA, coated protein, antibody concentration not given.

In experiment [3] the target is T3, human PD-1^ECD-hFc protein (Immunogen A) (human, UniProt Q15116 25-167).
T3 construct: also called PD-1-hFc; hPD-1^ECD-hFc; not shown: human IgG Fc fragment (hFc)
Described as above.
T3 sequence (Q15116 25-167): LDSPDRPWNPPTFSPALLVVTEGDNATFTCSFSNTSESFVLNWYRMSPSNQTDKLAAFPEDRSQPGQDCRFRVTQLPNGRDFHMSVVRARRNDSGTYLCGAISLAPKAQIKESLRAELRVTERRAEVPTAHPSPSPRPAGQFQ

Experiment [4] addresses CD28 (human, UniProt P10747 19-152). Described as above.
Target sequence in this assay (P10747 19-152 limits assumed): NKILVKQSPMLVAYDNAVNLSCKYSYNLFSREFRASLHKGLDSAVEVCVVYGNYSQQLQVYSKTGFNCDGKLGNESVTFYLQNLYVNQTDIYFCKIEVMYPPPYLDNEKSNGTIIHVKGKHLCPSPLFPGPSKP
Experiment [5] concerns the target T4, CTLA4 (human, UniProt P16410 37-162, limits assumed).
T4 sequence (looked up): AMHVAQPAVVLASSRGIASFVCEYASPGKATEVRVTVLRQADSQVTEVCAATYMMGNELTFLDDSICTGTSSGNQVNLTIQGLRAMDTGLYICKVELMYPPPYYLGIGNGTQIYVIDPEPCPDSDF
The experiment is described as above.

The target of another experiment is T5, B7.1 (human, UniProt P33681 35-242).
T5 sequence (looked up): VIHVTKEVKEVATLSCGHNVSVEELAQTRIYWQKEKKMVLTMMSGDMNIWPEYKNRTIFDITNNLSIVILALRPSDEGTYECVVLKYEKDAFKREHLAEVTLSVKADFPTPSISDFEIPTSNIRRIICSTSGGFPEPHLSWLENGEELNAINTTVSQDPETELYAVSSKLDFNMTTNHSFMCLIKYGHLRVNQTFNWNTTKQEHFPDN
Described as above.

Another experiment deals with T6, NC-Fc.
T6 construct: seemingly a negative control Fc protein
Described as above.

The target in experiment [6] is T7, human PD-1, full length, on cells (human, UniProt Q15116 25-288).
T7 construct: whole, on cells; in the lymphocyte assays the natural PD-1 of human T cells/PBMCs; also called hPD-1; CHO-K1-hPD-1
T7 sequence (Q15116 25-288): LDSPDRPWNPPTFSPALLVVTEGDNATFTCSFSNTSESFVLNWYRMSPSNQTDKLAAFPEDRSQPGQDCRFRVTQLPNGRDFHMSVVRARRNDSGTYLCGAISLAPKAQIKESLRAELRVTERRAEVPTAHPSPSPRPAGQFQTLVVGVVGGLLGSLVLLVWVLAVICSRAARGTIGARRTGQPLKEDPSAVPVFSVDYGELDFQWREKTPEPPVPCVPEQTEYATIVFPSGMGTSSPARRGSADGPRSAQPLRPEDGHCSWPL
Kind of experiment: flow cytometry on activated human PBMCs (MFI).

Experiment [7] concerns the target T3, human PD-1^ECD-hFc protein (Immunogen A). Put plainly: ELISA, coated human PD-1ECD-hFc. A general note: In an ELISA, binding on a coated surface is turned into a signal by an enzyme label.
In experiment [8] the target is T8, cyno monkey PD-1^ECD-hFc protein (cyno monkey, UniProt B0LAJ3 25-167).
T8 construct: also called cyno PD-1^ECD-hFc; not shown: human IgG Fc fragment (hFc) and its junction to the ECD
T8 sequence (B0LAJ3 entry or part of it limits assumed): as the sequence (Q15116 25-167) above, with D2E, P10A, V19L, T35A, Q75R counted along it
Kind of experiment: ELISA, coated cyno PD-1ECD-hFc.

Experiment [9] concerns the target T7, human PD-1, full length, on cells. Kind of experiment: flow cytometry on CHO-K1-hPD-1 cells. Background: Flow cytometry measures light scatter and fluorescence of single cells or particles in a stream.
In experiment [10] the target is T9, full length human PD-1 on cells (human, UniProt Q15116 25-288).
T9 construct: Also used here for PD-1 on human T cells/PBMC; also called CHO-K1-hPD-1; hPD-1
T9 sequence (Q15116 25-288 limits assumed): as the sequence (Q15116 25-288) above
Put plainly: cell-based receptor ligand blocking assay (fully human antibodies), blocked ligand PD-L1.

Experiment [11] concerns the target T10, human PD-1^ECD-hFc protein (Immunogen A) (human, UniProt Q15116 25-167).
T10 construct: Biotinylated for the Octet assay; also called PD-1-hFc; hPD-1^ECD-hFc; not shown: human IgG Fc fragment (hFc)
Kind of experiment: protein-based receptor ligand blocking assay (fully human antibodies), blocked ligand PD-L2.
T10 sequence (Q15116 25-167): as the sequence (Q15116 25-167) above

The target in experiment [12] is CD28 (human, UniProt P10747 19-152). Put plainly: ELISA on coated protein (Table 22).
Target sequence in this assay (P10747 19-152 limits assumed): as the sequence (P10747 19-152 limits assumed) above
The next experiment deals with T11, B7-1 (human, UniProt P33681 35-242).
T11 sequence (looked up): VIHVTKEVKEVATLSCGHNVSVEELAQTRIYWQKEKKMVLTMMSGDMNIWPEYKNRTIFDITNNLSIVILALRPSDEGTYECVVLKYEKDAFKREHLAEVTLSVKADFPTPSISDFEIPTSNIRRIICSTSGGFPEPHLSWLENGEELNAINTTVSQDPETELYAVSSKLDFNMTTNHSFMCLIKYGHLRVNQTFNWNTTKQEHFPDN
Kind of experiment: ELISA on coated protein (Table 22).

Experiment [13] concerns the target T12, ICOS (human, UniProt Q9Y6W8 21-140, limits assumed).
T12 sequence (looked up): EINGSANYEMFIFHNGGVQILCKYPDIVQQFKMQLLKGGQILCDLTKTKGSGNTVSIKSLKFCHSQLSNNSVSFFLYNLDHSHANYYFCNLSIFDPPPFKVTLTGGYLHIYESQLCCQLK
Kind of experiment: ELISA on coated protein (Table 22).

Experiment [14] addresses T13, CTLA4 (human, UniProt P16410 37-162, limits assumed).
T13 sequence (looked up): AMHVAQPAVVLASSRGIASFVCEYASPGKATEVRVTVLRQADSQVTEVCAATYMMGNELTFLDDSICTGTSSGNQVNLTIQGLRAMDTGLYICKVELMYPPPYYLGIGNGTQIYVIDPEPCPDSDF
Put plainly: ELISA on coated protein (Table 22).

Experiment [15] deals with T10, human PD-1^ECD-hFc protein (Immunogen A). Kind of experiment: protein-based receptor ligand blocking assay (fully human antibodies), blocked ligand PD-L1. The method, then:
Purified PD-1^ECD-hFc (Example 2) was diluted with PBS to a final concentration of 1.0 ug/mL, and 100 uL diluted PD-1^ECD-hFc were added to each well of a 96-well plate that was then sealed with plastic film and incubated at 4° C. overnight. The plate was washed twice with wash buffer (PBS+0.01% (v/v) Tween 20) and incubated with blocking buffer (PBS+[…]) at room temperature for 2 hours. The blocking buffer was aspirated, and 50 uL purified anti-PD-1 antibodies from Example 2 were added to each well of 96-well plate. […] The plate was washed three times with wash buffer (PBS+0.01% (v/v) Tween 20). 100 uL HRP-conjugated streptavidin (Sigma) were then added to each well and incubated at 37° C. for 2 hours. The plate was then washed three times with wash buffer, and 100 uL TMB substrate were added to each well. After 30 minutes of incubation at room temperature, the reaction was stopped by adding 100 uL stop solution (0.1N HCl). The absorbance at OD450 nm was measured with an ELISA plate reader (384plus SpectraMax, Molecular Devices).

The target is the same in experiment [16]. Put plainly: protein-based receptor ligand blocking assay (fully human antibodies), blocked ligand PD-L2. This is another data set of the same source.
Target sequence in this assay (Q15116 25-167): as the sequence (Q15116 25-167) above
Experiment [17] has as its target T9, full length human PD-1 on cells. Put plainly: cell-based receptor ligand blocking assay (fully human antibodies), blocked ligand PD-L1. This is another data set of the same source.

What is called Kd is the concentration at which binding is half-saturated. Broadly, the koff is the first-order rate constant of dissociation. One may read the kon as the rate constant with which the complex forms. One may read the EC50 (read off the curve) as the concentration that produces a half-maximal response.

Like-named read-outs stand apart in the source and are kept apart here.

T1 sequence (Q15116 25-167): as above

B1: fully human anti-PD-1 antibody 76G5B3 (antibody, human IgG4 S228P, kappa, V domains shown)
VH: QVQLVESGGGVVQPGRSLRLSCAASGFTFSDYGFHWVRQAPGKGLEWVAVIWYDGSNEYYTDSVKGRFTISRDNSKNTLYLQMNSLRAEDTAMYFCVVNPFDYWGQGTLVTVSS
VL: DIQMTQSPSSLSAFVGDRVTITCRASQGINHYLAWYQQKPGKAPNLLILAASTLLSGVPSRFGGRGSGTDFTLIISSLQPEDVATYYCQKYDSAPYTFGQGTKLEIKR
In the case of B1, in [1], binding was put at a Kd of 0.936 nM, the koff was found to be 9.35e-05 s⁻¹ and the association rate constant (kon) amounted to 100000 M⁻¹ s⁻¹. Moreover, the OD450 nm with ICOS [2] was 0.38 OD450. Moreover, in [3], the OD450 nm was 3.01 OD450. Moreover, the OD450 nm with CD28 [4] was 0.1 OD450. In the experiment with CTLA4 [5], this molecule had an OD450 nm of 0.32 OD450. Moreover, in the experiment with B7.1, the OD450 nm worked out at 0.37 OD450. The molecule also displayed an OD450 nm with NC-Fc of 0.41 OD450. In experiment [6], the “EC50 (read off the curve)” value is roughly 0.2 nM. In [7], the “OD450 nm at 0 nM” value came out at 0.09 OD450, the “OD450 nm at 0.0001 nM” value was determined as 0.1 OD450, the “OD450 nm at 0.001 nM” value stood at 0.12 OD450 and the “OD450 nm at 0.01 nM” value is 0.28 OD450. Besides, in [7], the “OD450 nm at 0.1 nM” value stood at 1.34 OD450, the “OD450 nm at 1 nM” value came to 2.47 OD450, the “OD450 nm at 10 nM” value was determined as 2.44 OD450 and the “OD450 nm at 100 nM” value was determined as 2.58 OD450. Also, in [8], the “OD450 nm at 0 nM” value worked out at 0.06 OD450, the “OD450 nm at 0.0001 nM” value came to 0.06 OD450, the “OD450 nm at 0.001 nM” value was found to be 0.08 OD450 and the “OD450 nm at 0.01 nM” value turned out to be 0.2 OD450. Moreover, in experiment [8], the “OD450 nm at 0.1 nM” value came out at 1.06 OD450, the “OD450 nm at 1 nM” value was found to be 2.32 OD450, the “OD450 nm at 10 nM” value was 2.41 OD450 and the “OD450 nm at 100 nM” value is 2.45 OD450. Also, in experiment [9], the “MFI at 0 nM” value was 4.1 MFI and the “MFI at 0.01 nM” value is 22.9 MFI.

B2: fully human anti-PD-1 antibody 76G5B3 (antibody, human IgG4 S228P, kappa, V domains shown)
VH: QVQLVESGGGVVQPGRSLRLSCAASGFTFSDYGFHWVRQAPGKGLEWVAVIWYDGSNEYYTDSVKGRFTISRDNSKNTLYLQMNSLRAEDTAMYFCVVNPFDYWGQGTLVTVSS
VL: DIQMTQSPSSLSAFVGDRVTITCRASQGINHYLAWYQQKPGKAPNLLILAASTLLSGVPSRFGGRGSGTDFTLIISSLQPEDVATYYCQKYDSAPYTFGQGTKLEIKR
notes: also called 76G5B3 (fully human, IgG4 S228P / kappa)
On to B2, for which the “IC50 (read off the curve)” value was roughly 0.3 µg/mL in [10], roughly 8 nM in experiment [11] and roughly 2 nM in [15]. Further, the binding result in the experiment with CD28 [12], with B7-1, with ICOS [13] and with CTLA4 [14] was “no binding” in each case.

B3: fully human anti-PD-1 antibody 21G8F11 (antibody, human IgG4 S228P, kappa, V domains shown)
VH: EVQLLESGGGLAQPGGSLRLSCAASGFSFNTYLMHWVRQAPGKGLEWVSAISGGGGNTYYADSVKGRFTISRDNSKNTLYLQMNSLRAEDTAVYYCAKENRIPVAPFDYWGQGTLVTVSS
VL: DIQMTQSPSTLSASVGDRVTITCRASQSISTWLAWYQQKPGKAPKLLIYKASSLESGVPSRFSGSGSGTEFTLTISSLQPDDLATYYCQQYNSFSWTFGQGTKVEIKR
notes: also called 21G8F11 (fully human, IgG4 S228P / kappa)
Regarding B3, the “IC50 (read off the curve)” value was roughly 1 nM in experiment [16], roughly 5 nM in experiment [17] and roughly 1 nM in experiment [15]. For the same molecule, the binding result in the experiment with B7-1, with ICOS [13] and with CTLA4 [14] was “no binding” each time.

These data come from patent US20180214548A1 (SHANGHAI YUNYI HEALTHCARE AND TECHNOLOGY, published 2018).
